How the values were obtained:
[1] = biological target: BG505 DS-SOSIP.664 stabilized soluble HIV-1 Env trimer (HIV-1 (clade A, strain BG505)) (UniProt Q2N0S6); experiment: negative stain electron microscopy
[2] = biological target: BG505 Env (unmutated), on pseudovirus (HIV-1 (clade A, strain BG505)) (UniProt Q2N0S6)
[3] = biological target: CH505 Env, on pseudovirus (HIV-1 (clade C, isolate CH505))

CH103 KN Fab (partially UCA-reverted CH103 mutant, E75K and D76N)
stoichiometry N (Fab per trimer) [1]: 1

mature CH103 Fab
stoichiometry N (Fabs per trimer) [1]: 2

B1: CH103 KN antibody (IgG; E75K and D76N in the heavy chain) (antibody, V domains shown)
V domain 1: QVQLQESGPGVVKSSETLSLTCTVSGGSMGGTYWSWLRLSPGKGLEWIGYIFHTGETNYSPSLKGRVSISVDTSKNQFSLRLRSVTAADTAVYFCASLPRGQLVNAYFRNWGRGSLVSVTA
V domain 2: SYELTQPPSVSVSPGQTATITCSGASTNVCWYQVKPGQSPEVVIFENYKRPSGIPDRFSGSKSGSTATLTIRGTQAIDEADYYCQVWDSFSTFVFGSGTQVTVL
neutralisation of BG505 pseudovirus (TZM-bl), decrease against mature CH103 [2]: > 3 fold
neutralisation of CH505 pseudovirus (TZM-bl), decrease against mature CH103 [3]: > 3 fold

From PMC12335366
